# Target: T1, GUCY2C protein (Ser24-Gln430) (Homo sapiens (Human), UniProt P25092 24-430)
# T1 construct: Synthesized by GenScript and used as the immunogen; No tags are stated; also called extracellular region of the artificially synthesized GUCY2C protein; Protein GUCY2C
# Test: Screening ELISA: culture supernatant of the IPTG-induced HB2151 clone on a plate coated with 1 ug/ml GUCY2C; detection with peroxidase goat anti-alpaca IgG (VHH domain), TMB, absorbance at 450 nm; VHH concentration not given; negative control (NC) bar in the same chart is labelled 0.15
# Method: The phages of 3 rounds screening were transfected into HB2151 bacteria, and 100 ul of infected HB2151 bacteria were taken to scrape on the surface of 2×YT-AG solid culture dish. 96 single clones were picked and added into 2×YT medium, then cultured in a 96 deep-well plate. 0.8 mM IPTG was added into the medium when the bacteria grew to logarithmic phase and were cultured overnight at 25° C. The supernatant of medium was added to the 1 ug/ml GUCY2C coated ELISA plate which was contained in two control wells. After incubating for 2 hours at 37° C., the plate was washed 3 times with PBST. Peroxidase AffiniPure Goat anti-Alpaca IgG, VHH domain (Jackson Immumo Research) was added into the Elisa plate, incubated at 37° C. for 1 hour and washed 3 times with PBST. TMB solution was added for 20 minutes, then the reaction was stopped with 2M sulfuric acid. The absorbance value at 450 nm wavelength was read on the microplate reader (FIG. 2). Clones with an absorbance value 2.1 times higher than the negative control were considered positive clones and were sent to sequencing.
# T1 sequence (P25092 24-430): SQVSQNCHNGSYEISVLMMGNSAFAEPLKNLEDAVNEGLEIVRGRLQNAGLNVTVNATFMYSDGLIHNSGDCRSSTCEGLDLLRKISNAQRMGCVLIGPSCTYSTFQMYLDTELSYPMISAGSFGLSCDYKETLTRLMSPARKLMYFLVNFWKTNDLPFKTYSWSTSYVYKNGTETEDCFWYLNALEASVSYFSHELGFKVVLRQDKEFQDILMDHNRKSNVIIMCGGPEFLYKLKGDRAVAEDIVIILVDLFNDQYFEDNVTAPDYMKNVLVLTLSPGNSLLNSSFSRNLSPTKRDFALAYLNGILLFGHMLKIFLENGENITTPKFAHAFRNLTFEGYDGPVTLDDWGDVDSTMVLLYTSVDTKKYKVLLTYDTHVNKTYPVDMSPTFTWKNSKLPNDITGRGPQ
row,Binder,OD450
1,"C12 (VHH, Alpaca VHH tested as culture supernatant of IPTG-induced HB2151 bacteria (pComb3XSS phagemid); also called clone C12) VHH: QVQLVESGGGLVQPGGSLRLSCAASSNIFRAYGMDWYRQAPGKQREMVATIWLSGRSTYTDAVKGRFTISRDNAKNTVYLQMNNLKPEDTAVYYCNAGPTTASSVRQYWGQGTQVTVSS",2
2,"C15 (VHH, Alpaca VHH tested as culture supernatant of IPTG-induced HB2151 bacteria (pComb3XSS phagemid); also called clone C15) VHH: QVQLVESGGGVVQPGGSLRLSCAASSNIFRAYGMDWYRQAPGKQREMVATIWLSGRSTYTDAVQGRFTISRDNAKNTVYLQMNNLKPEDTAVYYCNAGPTTASSVRQYWGQGTQVTVSS",1
3,"C08 (VHH, Alpaca VHH tested as culture supernatant of IPTG-induced HB2151 bacteria (pComb3XSS phagemid); also called C8; clone C08) VHH: EVQLVESGGGLVQPGGSLRLSCAASSNIFRAYGMGWYRQAPGKQREMVAAIWLSGRTEYADAVQGRFTVSRDNAKNTVYLQMNSLKPEDTAVYYCNAGPPTATSVRQYWGQGTQVTVSS",0.86
4,"C27 (VHH, Alpaca VHH tested as culture supernatant of IPTG-induced HB2151 bacteria (pComb3XSS phagemid); also called clone C27) VHH: EVQLVESGGGLVQPGGSLRLSCTSSSNIFKIYGMDWYRQAPGKQREIVATIYLSGRTTYSDAVKGRFTISRDNAKNTVYLQMNTLKPEDTAVYYCNAGETTASSVRQYWGQGTQVTVSS",1.47
5,"C13 (VHH, Alpaca VHH tested as culture supernatant of IPTG-induced HB2151 bacteria (pComb3XSS phagemid); also called clone C13) VHH: QVQLVESGGGLVQPGGSLRLSCAASSNIFRAYGMDWYRQAPGKQREMVATIWLSGRTTYTDAVKGRFTISRDNAKNTVYLQMNSLKPEDTAVYYCNAGAPTASSGRQYWGQGTQVTVSS",0.8
6,"C21 (VHH, Alpaca VHH tested as culture supernatant of IPTG-induced HB2151 bacteria (pComb3XSS phagemid); also called clone C21) VHH: QVQLVESGGGLVQPGGSLRLSCTSSSNIFRIYGMDWYRQAPGKQREIVATIYLSGRTTYSDAVKGRFTISRDNAKDTVYLQMNSLKPEDTAVYYCNAGEPTASSVRQYWGQGTQVTVSS",0.42
7,"C30 (VHH, Alpaca VHH tested as culture supernatant of IPTG-induced HB2151 bacteria (pComb3XSS phagemid); also called clone C30) VHH: QVQLVESGGGLVQPGGSLRLSCAASGSIFRVYGMDWYRQAPGKQRELVASIFLSGRTNYADAVKGRFTLSRDNAKNTMYLQMNSLKPEDTAVYYCNAGETTASSVRQYWGQGTQVTVSS",0.93
8,"C31 (VHH, Alpaca VHH tested as culture supernatant of IPTG-induced HB2151 bacteria (pComb3XSS phagemid); also called clone C31) VHH: AVQLVESGGGLVQPGGSLRLSCAASGSIFRVYGMDWYRQAPGKQRELVASIWLSGRTNYADAVKGRFTLSRDNAKNTMYLQMNSLKPEDTAVYYCNAGETTASSVRQYWGQGTQVTISS",0.45

# Reference: patent publication US20240059794A1 (PARASOL BIOTECH, published 2024)
